Data published in IntAct's records for PubMed 25910212.

B1: U4/U6 small nuclear ribonucleoprotein Prp31 (Homo sapiens), Q8WWY3 (parent)
chain: MSLADELLADLEEAAEEEEGGSYGEEEEEPAIEDVQEETQLDLSGDSVKTIAKLWDSKMFAEIMMKIEEYISKQAKASEVMGPVEAAPEYRVIVDANNLTVEIENELNIIHKFIRDKYSKRFPELESLVPNALDYIRTVKELGNSLDKCKNNENLQQILTNATIMVVSVTASTTQGQQLSEEELERLEEACDMALELNASKHRIYEYVESRMSFIAPNLSIIIGASTAAKIMGVAGGLTNLSKMPACNIMLLGAQRKTLSGFSSTSVLPHTGYIYHSDIVQSLPPDLRRKAARLVAAKCTLAARVDSFHESTEGKVGYELKDEIERKFDKWQEPPPVKQVKPLPAPLDGQRKKRGGRRYRKMKERLGLTEIRKQANRMSFGEIEEDAYQEDLGFSLGHLGKSGSGRVRQTQVNEATKARISKTLQRTLQKQSVVYGGKSTIRDRSSGTASSVAFTPLQGLEIVNPQAAEKKVAEANQKYFSSMAEFLKVKGEKSGLMST
partner: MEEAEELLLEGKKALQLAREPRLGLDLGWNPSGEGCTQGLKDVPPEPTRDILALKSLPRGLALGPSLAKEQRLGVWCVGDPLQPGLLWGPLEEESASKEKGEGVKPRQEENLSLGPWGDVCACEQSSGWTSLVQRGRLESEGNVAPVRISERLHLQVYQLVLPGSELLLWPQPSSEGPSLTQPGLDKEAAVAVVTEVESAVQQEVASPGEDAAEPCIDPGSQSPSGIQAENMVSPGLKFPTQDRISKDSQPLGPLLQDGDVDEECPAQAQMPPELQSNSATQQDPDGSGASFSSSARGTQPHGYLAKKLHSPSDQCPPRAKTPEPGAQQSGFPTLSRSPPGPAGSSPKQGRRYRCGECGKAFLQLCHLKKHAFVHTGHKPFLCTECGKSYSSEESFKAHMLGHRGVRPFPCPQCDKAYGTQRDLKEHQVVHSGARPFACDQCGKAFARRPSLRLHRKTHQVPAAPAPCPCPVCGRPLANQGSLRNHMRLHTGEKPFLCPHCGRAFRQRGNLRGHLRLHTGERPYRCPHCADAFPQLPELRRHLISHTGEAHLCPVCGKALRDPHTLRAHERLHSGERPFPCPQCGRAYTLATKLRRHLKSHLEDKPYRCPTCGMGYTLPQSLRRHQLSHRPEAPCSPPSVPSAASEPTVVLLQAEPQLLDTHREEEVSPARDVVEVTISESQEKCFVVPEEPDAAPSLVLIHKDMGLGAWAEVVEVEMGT
B2: Hypoxanthine-guanine phosphoribosyltransferase (Homo sapiens), P00492 (parent)
chain: MATRSPGVVISDDEPGYDLDLFCIPNHYAEDLERVFIPHGLIMDRTERLARDVMKEMGGHHIVALCVLKGGYKFFADLLDYIKALNRNSDRSIPMTVDFIRLKSYCNDQSTGDIKVIGGDDLSTLTGKNVLIVEDIIDTGKTMQTLLSLVRQYNPKMVKVASLLVKRTPRSVGYKPDFVGFEIPDKFVVGYALDYNEYFRDLNHVCVISETGKAKYKA
partner: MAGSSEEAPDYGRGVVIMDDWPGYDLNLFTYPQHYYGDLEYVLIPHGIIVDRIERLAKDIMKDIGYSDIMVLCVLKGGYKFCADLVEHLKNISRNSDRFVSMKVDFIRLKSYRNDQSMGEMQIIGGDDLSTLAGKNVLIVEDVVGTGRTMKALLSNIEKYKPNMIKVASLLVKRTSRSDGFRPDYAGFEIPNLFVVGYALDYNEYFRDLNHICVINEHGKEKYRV
B3: ATP synthase mitochondrial F1 complex assembly factor 2 (Homo sapiens), Q8N5M1 (parent)
chain: MWRSCLRLRDGGRRLLNRPAGGPSASMSPGPTIPSPARAYAPPTERKRFYQNVSITQGEGGFEINLDHRKLKTPQAKLFTVPSEALAIAVATEWDSQQDTIKYYTMHLTTLCNTSLDNPTQRNKDQLIRAAVKFLDTDTICYRVEEPETLVELQRNEWDPIIEWAEKRYGVEISSSTSIMGPSIPAKTREVLVSHLASYNTWALQGIEFVAAQLKSMVLTLGLIDLRLTVEQAVLLSRLEEEYQIQKWGNIEWAHDYELQELRARTAAGTLFIHLCSESTTVKHKLLKE
partner: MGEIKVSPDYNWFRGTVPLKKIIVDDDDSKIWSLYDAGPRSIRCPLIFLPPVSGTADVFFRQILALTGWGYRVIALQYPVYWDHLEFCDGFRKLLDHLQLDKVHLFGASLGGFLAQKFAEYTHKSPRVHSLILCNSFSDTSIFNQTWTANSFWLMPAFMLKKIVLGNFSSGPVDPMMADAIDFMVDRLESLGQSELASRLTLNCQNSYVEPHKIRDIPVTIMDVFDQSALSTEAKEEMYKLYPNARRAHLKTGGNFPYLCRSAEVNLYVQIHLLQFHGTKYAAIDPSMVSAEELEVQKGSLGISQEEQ
B4: H/ACA ribonucleoprotein complex subunit 3 (Homo sapiens), Q9NPE3 (parent)
chain: MFLQYYLNEQGDRVYTLKKFDPMGQQTCSAHPARFSPDDKYSRHRITIKKRFKVLMTQQPRPVL
partner: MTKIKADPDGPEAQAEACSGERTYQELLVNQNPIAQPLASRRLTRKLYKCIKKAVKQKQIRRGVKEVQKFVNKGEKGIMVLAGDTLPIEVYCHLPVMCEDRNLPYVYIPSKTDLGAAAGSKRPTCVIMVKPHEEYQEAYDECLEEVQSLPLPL
B5: ATP synthase mitochondrial F1 complex assembly factor 2 (Homo sapiens), Q8N5M1 (parent)
chain: B3 chain
partner: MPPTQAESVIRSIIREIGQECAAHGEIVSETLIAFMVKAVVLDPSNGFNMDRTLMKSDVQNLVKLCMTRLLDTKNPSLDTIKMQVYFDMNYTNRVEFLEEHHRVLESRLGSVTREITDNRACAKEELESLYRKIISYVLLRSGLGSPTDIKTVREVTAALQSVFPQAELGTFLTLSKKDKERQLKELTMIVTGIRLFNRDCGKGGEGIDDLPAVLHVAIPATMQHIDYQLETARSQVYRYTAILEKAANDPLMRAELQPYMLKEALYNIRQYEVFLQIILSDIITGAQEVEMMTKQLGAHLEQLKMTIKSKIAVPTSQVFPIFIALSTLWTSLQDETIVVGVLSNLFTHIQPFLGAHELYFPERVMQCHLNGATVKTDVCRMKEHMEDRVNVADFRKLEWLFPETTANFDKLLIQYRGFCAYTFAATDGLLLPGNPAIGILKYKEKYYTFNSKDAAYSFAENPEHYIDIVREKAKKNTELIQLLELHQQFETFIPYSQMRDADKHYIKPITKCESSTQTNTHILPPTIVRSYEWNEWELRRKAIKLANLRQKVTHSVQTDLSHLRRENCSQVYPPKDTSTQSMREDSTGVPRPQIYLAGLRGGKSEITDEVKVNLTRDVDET
B6: Emerin (Homo sapiens), P50402 (parent)
chain: MDNYADLSDTELTTLLRRYNIPHGPVVGSTRRLYEKKIFEYETQRRRLSPPSSSAASSYSFSDLNSTRGDADMYDLPKKEDALLYQSKGYNDDYYEESYFTTRTYGEPESAGPSRAVRQSVTSFPDADAFHHQVHDDDLLSSSEEECKDRERPMYGRDSAYQSITHYRPVSASRSSLDLSYYPTSSSTSFMSSSSSSSSWLTRRAIRPENRAPGAGLGQDRQVPLWGQLLLFLVFVIVLFFIYHFMQAEEGNPF

Variants of: B1
Conditions: with zn408_human ZNF408, Q9H9D4

Variant	effect of a mutation on the interaction
L107V	with no effect

Variants of: B2
Conditions: with prdc1_human PRTFDC1, Q9NRG1

Variant	effect of a mutation on the interaction
D194H	disrupting interaction strength

Variants of: B3
Conditions: with spg21_human SPG21, Q9NZD8

Variant	effect of a mutation on the interaction
W94R	disrupting interaction strength

Variants of: B4
Conditions: with nhp2_human NHP2, Q9NX24

Variant	effect of a mutation on the interaction
R34W	with no effect

Variants of: B5
Conditions: with cf206_human CFAP206, Q8IYR0

Variant	effect of a mutation on the interaction
W94R	disrupting interaction strength

Variants of: B6
Conditions: with vapb_human VAPB

Variant	effect of a mutation on the interaction
D72V	with no effect
S54F	with no effect
P183T	with no effect
P183H	with no effect

Variants of: B6
Conditions: with tri42_human TRIM42, Q8IWZ5
Chain of tri42_human TRIM42, Q8IWZ5 (Q8IWZ5 whole entry): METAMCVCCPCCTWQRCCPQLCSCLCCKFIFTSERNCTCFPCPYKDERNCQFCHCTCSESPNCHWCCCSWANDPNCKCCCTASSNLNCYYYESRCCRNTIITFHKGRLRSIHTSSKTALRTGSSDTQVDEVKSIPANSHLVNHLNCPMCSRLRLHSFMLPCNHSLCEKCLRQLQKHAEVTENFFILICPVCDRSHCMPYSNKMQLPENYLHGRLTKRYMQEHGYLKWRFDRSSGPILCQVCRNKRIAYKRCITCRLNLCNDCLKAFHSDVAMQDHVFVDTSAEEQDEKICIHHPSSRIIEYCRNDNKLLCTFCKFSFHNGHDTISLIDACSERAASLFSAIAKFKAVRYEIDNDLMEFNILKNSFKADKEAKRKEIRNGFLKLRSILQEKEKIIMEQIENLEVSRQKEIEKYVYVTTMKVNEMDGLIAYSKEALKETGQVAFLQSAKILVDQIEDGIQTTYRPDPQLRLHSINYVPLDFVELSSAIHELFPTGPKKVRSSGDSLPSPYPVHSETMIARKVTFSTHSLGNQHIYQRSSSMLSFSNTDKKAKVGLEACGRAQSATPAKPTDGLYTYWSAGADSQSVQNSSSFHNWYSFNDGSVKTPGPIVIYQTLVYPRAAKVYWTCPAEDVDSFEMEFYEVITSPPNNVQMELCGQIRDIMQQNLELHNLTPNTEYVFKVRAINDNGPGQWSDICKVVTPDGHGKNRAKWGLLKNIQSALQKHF

Variant	effect of a mutation on the interaction
D72V	with no effect
S54F	with no effect
P183T	with no effect
P183H	with no effect

Variants of: B6
Conditions: with stx4_human STX4, Q12846
Chain of stx4_human STX4, Q12846 (Q12846 whole entry): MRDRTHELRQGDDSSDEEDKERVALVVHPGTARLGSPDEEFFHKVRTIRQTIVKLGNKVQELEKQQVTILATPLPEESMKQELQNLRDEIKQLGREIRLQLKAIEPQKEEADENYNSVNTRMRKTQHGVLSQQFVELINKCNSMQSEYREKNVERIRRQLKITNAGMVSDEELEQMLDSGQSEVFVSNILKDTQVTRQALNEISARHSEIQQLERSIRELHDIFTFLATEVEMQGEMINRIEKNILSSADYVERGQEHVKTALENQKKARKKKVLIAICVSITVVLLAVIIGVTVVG

Variant	effect of a mutation on the interaction
D72V	with no effect
S54F	with no effect
P183T	with no effect
P183H	with no effect

Variants of: B6
Conditions: with meox2_human MEOX2, P50222
Chain of meox2_human MEOX2, P50222 (P50222 whole entry): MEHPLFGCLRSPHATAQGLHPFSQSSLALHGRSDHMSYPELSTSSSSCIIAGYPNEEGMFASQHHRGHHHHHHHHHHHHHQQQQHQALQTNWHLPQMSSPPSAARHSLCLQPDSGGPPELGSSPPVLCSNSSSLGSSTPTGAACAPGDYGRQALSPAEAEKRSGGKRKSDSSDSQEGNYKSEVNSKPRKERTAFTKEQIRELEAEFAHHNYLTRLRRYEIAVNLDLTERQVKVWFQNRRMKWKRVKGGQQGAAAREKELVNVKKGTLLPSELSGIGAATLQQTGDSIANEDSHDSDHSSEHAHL

Variant	effect of a mutation on the interaction
D72V	with no effect
S54F	with no effect
P183T	with no effect
P183H	with no effect

Variants of: B6
Conditions: with ccd33_human CCDC33, Q8N5R6
Chain of ccd33_human CCDC33, Q8N5R6 (Q8N5R6 whole entry): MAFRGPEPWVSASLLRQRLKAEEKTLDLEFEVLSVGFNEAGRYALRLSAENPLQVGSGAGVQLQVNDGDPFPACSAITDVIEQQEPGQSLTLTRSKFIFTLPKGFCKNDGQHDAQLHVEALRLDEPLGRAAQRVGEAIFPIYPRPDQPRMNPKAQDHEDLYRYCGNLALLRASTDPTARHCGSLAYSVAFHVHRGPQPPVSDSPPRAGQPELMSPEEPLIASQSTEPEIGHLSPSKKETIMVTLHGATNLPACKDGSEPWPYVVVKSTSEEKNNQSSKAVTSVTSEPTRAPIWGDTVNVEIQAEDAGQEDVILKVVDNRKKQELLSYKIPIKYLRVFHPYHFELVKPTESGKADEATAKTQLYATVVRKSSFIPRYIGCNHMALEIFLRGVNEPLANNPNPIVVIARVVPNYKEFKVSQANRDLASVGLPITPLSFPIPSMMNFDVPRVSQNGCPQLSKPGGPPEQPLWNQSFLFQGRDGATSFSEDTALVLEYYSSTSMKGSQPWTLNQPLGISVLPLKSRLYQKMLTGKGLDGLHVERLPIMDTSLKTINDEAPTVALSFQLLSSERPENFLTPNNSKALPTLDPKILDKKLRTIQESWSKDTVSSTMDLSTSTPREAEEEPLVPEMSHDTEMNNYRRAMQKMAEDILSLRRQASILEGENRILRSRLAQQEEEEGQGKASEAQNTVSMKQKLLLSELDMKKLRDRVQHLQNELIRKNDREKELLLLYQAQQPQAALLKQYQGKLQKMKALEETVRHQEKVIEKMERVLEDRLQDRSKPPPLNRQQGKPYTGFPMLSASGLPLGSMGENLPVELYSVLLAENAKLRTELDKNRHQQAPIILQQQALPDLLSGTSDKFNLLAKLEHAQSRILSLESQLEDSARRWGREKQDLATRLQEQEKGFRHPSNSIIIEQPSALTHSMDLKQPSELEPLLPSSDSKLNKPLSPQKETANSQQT

Variant	effect of a mutation on the interaction
D72V	with no effect
S54F	with no effect
P183T	with no effect
P183H	with no effect
